Values of other authors as cited in patent US20140303060A1, “PROCESS FOR DEGRADING A BIOFILM ON SURFACES OF OBJECTS” (Fraunhofer Gesellschaft Zur Foerderung der angwandten …, priority 2011, published 2014).

Q: With “lysostaphin: zinc-dependent enzyme that cleaves the pentaglycine cross bridges of the bacterial cell wall” as the substance, how does the “effect of repeated freezing and thawing on activity” value read?
A: reduction of activity
